The term Kd denotes the free concentration of one partner at which half of the binding sites on the other are occupied at equilibrium, for simple one-to-one binding. Usually koff stands for a measure of how fast the partners let go of each other. A higher koff goes with a short-lived complex. A word on the kon: it is the rate constant with which the complex forms. Read a low kon as slow association.

First the molecules themselves.
B1: human FXa mutant containing the C-terminal EGF2-SP domain (EGF2-SP FXa) (enzyme)
chain: TRKLCSLDNGDCDQFCHEEQNSVVCSCARGYTLADNGKACIPTGPYPCGKQTLERIVGGQECKDGECPWQALLINEENEGFCGGTILSEFYILTAAHCLYQAKRFKVRVGDRNTEQEEGGEAVHEVEVVIKHNRFTKETYDFDIAVLRLKTPITFRMNVAPACLPERDWAESTLMTQKTGIVSGFGRTHEKGRQSTRLKMLEVPYVDRNSCKLSSSFIITQNMFCAGYDTKQEDACQGDSGGPHVTRFKDTYFVTGIVSWGEGCARKGKYGIYTKVTAFLKWIDRSMKTRGLPKAKSHAPEVITSSPLK
modifications: biotinylated with biotin-FPRCK
notes: domain: EGF2-SP; also called EGF2-SP fragment; rFX EGF2-SP
B2: Factor X-binding protein (X-bp) from Deinagkistrodon acutus (other)
chain 1: DCSSGWSSYEGHCYKVFKQSKTWADAESFCTKQVNGGHLVSIESSGEADFVGQLIAQKIKSAKIHVWIGLRAQNKEKQCSIEWSDGSSISYENWIEEESKKCLGVHIETGFHKWENFYCEQQDPFVCEA
chain 2: DCPSDWSSYEGHCYKPFNEPKNWADAENFCTQQHTGSHLVSFQSTEEADFVVKLAFQTFDYGIFWMGLSKIWNQCNWQWSNAAMLKYTDWAEESYCVYFKSTNNKWRSITCRMIANFVCEFQA
B3: mouse coagulation factor X (enzyme)
chain: ANSFFEEFKKGNLERECMEEICSYEEVREIFEDDEKTKEYWTKYKDGDQCESSPCQNQGACRDGIGGYTCTCSEGFEGKNCELFVRKLCRLDNGDCDQFCREEQNSVVCSCASGYFLGNDGKSCISTAPFPCGKITTGRRKRSVALNTSDSELDLEDALLDEDFLSPTENPIELLNLNETQPERSSDDLVRIVGGRECKDGECPWQALLINEDNEGFCGGTILNEFYILTAAHCLHQARRFKVRVGDRNTEKEEGNEMVHEVDVVIKHNKFQRDTYDYDIAVLRLKTPITFRMNVAPACLPQKDWAESTLMTQKTGIVSGFGRTHEKGRQSNILKMLEVPYVDRNTCKLSTSFSITQNMFCAGYEAKLEDACQGDSGGPHVTRFKNTYYVTGIVSWGEGCARKGKYGIYTKVTTFLKWIDRSMKARVGPTAETPRTAGPPN

Experiment [1] deals with T1, adenovirus serotype 5 (Ad5) virus particle (human adenovirus serotype 5, UniProt P04133 1-952).
T1 construct: also called Ad5CMVlacZ (control virus with unmodified hexon); intact virus Ad5
The experiment is described as follows: SPR; biotinylated EGF2-SP FXa coupled to SA chip, Ad5 injected. For orientation: SPR reads the build-up and loss of mass on a sensor chip optically.

The target in experiment [2] is B3. Put plainly: SPR (Biacore T100); mouse FX immobilised on CM5 chip, inhibitor injected; heterogeneous ligand model.
Experiment [3] deals with T2, human coagulation factor X (FX), full-length zymogen (human, UniProt P00742 41-488, genetically encoded glutamic acid residues of the Gla domain converted to γ-carboxyglutamic acid).
T2 construct: mature; also called human FX; hFX
The experiment is described as follows: SPR (Biacore T100); human FX immobilised on CM5 chip, inhibitor injected; heterogeneous ligand model.

Experiment [4] concerns the target Ixolaris, 12 kDa two-Kunitz domain protein isolated from tick salivary gland (tick, UniProt Q964Q0 27-165).

In the case of B1, the binding result in experiment [1] is given as “no binding”.
In experiment [2], B2 had a Kd of 1.04 nM, a koff of 0.00031 s⁻¹ and a kon of 296000 M⁻¹ s⁻¹. Moreover, in experiment [3], the Kd stood at 0.118 nM, the koff is 0.00023 s⁻¹ and the kon turned out to be 1.96e+06 M⁻¹ s⁻¹.
As for B3, in experiment [4], the Kd was 0.000515 nM, the koff came out at 8.1e-07 s⁻¹ and the on-rate (kon) came out at 1.57e+06 M⁻¹ s⁻¹.

The values are drawn from patent US20110104788A1 (published 2011).
